Experiment [1] addresses T1, human prostate specific membrane antigen (PSMA), full-length, on cells (human, UniProt Q04609 1-750).
T1 construct: also called huPSMA; human PSMA
The experiment can be described thus: FMAT cell binding, huPSMA CHO 1A10 cells, after 0 days in human serum at 37 C.

Experiment [2] concerns the target T1, human prostate specific membrane …. The experiment can be described thus: FMAT cell binding, huPSMA CHO 1A10 cells, after 4 days in human serum at 37 C.
Experiment [3] shares this target. The experiment can be described thus: FMAT cell binding, huPSMA CHO 1A10 cells, after 1 day in human serum at 37 C.
For experiment [4] the target is unchanged. The experiment can be described thus: FMAT cell binding, huPSMA CHO 1A10 cells, after 7 days in human serum at 37 C.
Experiment [5] concerns the target T2, recombinant human PSMA (R&D, cat. no. 4234-ZN) (human, UniProt Q04609 44-750).
T2 construct: Bought protein; also called rhPSMA; Recombinant PMSA
In words: Octet RED384 BLI, PSMA on sensor, VH series from 0.375 ug/ml. A general note: Biolayer interferometry detects binding as a change in optical thickness at a sensor tip.

Experiment [6] addresses T1, human prostate specific membrane …. The experiment can be described thus: FMAT direct cell binding, DU145 PSMA cells.
Experiment [7] has as its target T3, cynomolgus PSMA, full-length, on CHO cells (cynomolgus, UniProt A0A2K5VNZ0 1-750). The experiment can be described thus: cell-based or functional assay.
The target of experiment [8] is T1, human prostate specific membrane …. The experiment can be described thus: cell-based or functional assay.
For experiment [9] the target is unchanged. The experiment can be described thus: cell-based or functional assay. The source holds these as a separate data set.
For experiment [10], the target named is T3, cynomolgus PSMA, full-length, on CHO …. In words: FMAT direct cell binding, CHO cyno PSMA cells.
For experiment [11], the target named is T1, human prostate specific membrane …. In words: FMAT direct cell binding, LNCap cells.
Experiment [12] shares this target. In words: FMAT direct cell binding, CHO human PSMA cells.
The target is the same in experiment [13]. The experiment can be described thus: cell-based or functional assay. This is another data set of the same source.
For experiment [14] the target is unchanged. In words: cell-based or functional assay. The source holds these as a separate data set.
For experiment [15] the target is unchanged. In words: FMAT direct cell binding, human PSMA-CHO cells.
Experiment [16] shares this target. The experiment can be described thus: FMAT cell binding, huPSMA CHO cells, after 1 day in human serum at 37 C.
Experiment [17] shares this target. The experiment can be described thus: FMAT cell binding, huPSMA CHO cells, after 4 days in human serum at 37 C.
The target is the same in experiment [18]. The experiment can be described thus: FMAT cell binding, huPSMA CHO cells, after 0 days in human serum at 37 C.
The target is the same in experiment [19]. In words: FMAT cell binding, huPSMA CHO cells, after 7 days in human serum at 37 C.

Residue numbers refer to the chain shown, from its start. Names and notes keep the numbering of the source.

Experimental findings from patent US20200131274A1 (CRESCENDO BIOLOGICS, published 2020) are described below.

T2 sequence (Q04609 44-750 limits assumed): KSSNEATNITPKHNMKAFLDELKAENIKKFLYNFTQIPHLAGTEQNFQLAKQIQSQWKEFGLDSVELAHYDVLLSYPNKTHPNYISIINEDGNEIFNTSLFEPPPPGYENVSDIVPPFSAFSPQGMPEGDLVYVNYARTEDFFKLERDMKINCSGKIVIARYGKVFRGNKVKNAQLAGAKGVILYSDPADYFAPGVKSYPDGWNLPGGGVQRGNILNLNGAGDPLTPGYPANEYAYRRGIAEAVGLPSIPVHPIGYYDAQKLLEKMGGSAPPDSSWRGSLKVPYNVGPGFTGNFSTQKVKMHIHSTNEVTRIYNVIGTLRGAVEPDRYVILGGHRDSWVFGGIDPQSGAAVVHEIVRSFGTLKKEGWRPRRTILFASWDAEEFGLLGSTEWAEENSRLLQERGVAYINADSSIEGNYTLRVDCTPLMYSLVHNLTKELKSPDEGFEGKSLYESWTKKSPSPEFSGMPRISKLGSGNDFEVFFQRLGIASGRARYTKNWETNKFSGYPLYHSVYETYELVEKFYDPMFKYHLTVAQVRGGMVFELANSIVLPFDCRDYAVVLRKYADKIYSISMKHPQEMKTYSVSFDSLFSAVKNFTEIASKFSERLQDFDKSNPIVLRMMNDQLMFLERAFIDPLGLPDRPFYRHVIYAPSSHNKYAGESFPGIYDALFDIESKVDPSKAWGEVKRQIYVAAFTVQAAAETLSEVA
T1 sequence (Q04609 whole entry): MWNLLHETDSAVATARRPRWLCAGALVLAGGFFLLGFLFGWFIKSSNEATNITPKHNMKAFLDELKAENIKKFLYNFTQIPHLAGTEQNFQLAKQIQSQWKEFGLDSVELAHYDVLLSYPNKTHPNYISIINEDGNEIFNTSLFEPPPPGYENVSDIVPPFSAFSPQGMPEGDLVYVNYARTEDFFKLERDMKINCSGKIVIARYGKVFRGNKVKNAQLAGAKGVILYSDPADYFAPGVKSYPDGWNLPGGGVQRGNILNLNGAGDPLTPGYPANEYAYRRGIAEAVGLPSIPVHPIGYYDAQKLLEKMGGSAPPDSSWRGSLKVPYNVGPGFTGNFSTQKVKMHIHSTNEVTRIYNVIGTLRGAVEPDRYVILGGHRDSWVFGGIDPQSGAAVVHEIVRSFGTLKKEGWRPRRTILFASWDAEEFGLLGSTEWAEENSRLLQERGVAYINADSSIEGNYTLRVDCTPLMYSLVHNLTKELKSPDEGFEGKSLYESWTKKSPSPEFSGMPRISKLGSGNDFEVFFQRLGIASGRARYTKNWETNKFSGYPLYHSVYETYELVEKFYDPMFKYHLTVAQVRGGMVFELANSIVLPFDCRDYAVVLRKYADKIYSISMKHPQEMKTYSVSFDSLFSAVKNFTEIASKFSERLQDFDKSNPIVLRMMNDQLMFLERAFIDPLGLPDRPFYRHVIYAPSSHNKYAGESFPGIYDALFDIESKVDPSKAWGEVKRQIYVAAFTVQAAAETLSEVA

B1: single VH domain antibody 1.11 (VHH)
VHH: EVQLLESGGGLVQPGGSLRLSCAASGFSFSSYALSWVRQAPGKGLEWVSSIGENNDTTDYADNVKGRFTISRDNSKNTLYLQMNSLRVEDTAVYYCVKDGVHWGQGTLVTVSS
notes: Human single VH domain antibody (Humabody)
As for B1, the EC50 worked out at 0.234 nM in experiment [1]; 0.227 nM in experiment [2]; 0.208 nM in experiment [3]; 0.278 nM in [4]; 0.076 nM in [6]; 0.217 nM in experiment [10]. Moreover, the EC50 in experiment [11] was determined as 0.119 nM; in experiment [12], 0.0863 nM. The Kd in experiment [5] was found to be 0.8 nM. Besides, in [5], the koff turned out to be 0.000495 s⁻¹. The “His-ZAP cell killing, cyno PSMA EC50” value in experiment [7] is 0.41 nM. Moreover, in experiment [8], the “His-ZAP cell killing, human PSMA Average EC50” value was 0.014 nM. Further, in experiment [9], the “pHrodo Green internalization assay, human PSMA Average EC50 (M)” value (shortened to “pHrodo Green internalization assay”) came to 3.7e-10 M.

B2: single VH domain antibody 1.18 (VHH)
VHH: B1 VHH with D56A, D62A, N63S
notes: as for B1
Take B2: the 50% effective concentration (EC50) in [1] was 0.304 nM; in [2] it was 0.319 nM; in experiment [3], 0.311 nM; in [4] it was 0.313 nM; in experiment [6], 0.0495 nM; in experiment [10], 0.124 nM. The figures for the concentration giving a half-maximal response (EC50) in [11] and in experiment [12] were 0.0424 nM and 0.0586 nM, respectively. Moreover, the Kd in experiment [5] was determined as 0.59 nM. In addition, the koff in experiment [5] is 0.000572 s⁻¹. Further, the “His-ZAP cell killing, cyno PSMA EC50” value in experiment [7] turned out to be 0.48 nM. Besides, the “His-ZAP cell killing, human PSMA Average EC50” value in experiment [8] came out at 0.023 nM. Besides, the “pHrodo Green internalization assay” value in [9] is 3.1e-10 M.

B3: single VH domain antibody 1.16 (VHH)
VHH: B1 VHH with D56H, N63T
notes: as for B1
Turning to B3, the EC50 in experiment [1] was determined as 0.165 nM; in experiment [2] it was 0.242 nM; in experiment [3], 0.243 nM; in experiment [4], 0.236 nM; in experiment [6], 0.0594 nM; in experiment [10] it was 0.146 nM. In addition, the EC50 in experiment [11] was determined as 0.0754 nM; in experiment [12] it was 0.068 nM. Also, in experiment [5], the Kd turned out to be 0.44 nM. Also, the koff in [5] amounted to 0.000365 s⁻¹. Also, in [7], the “His-ZAP cell killing, cyno PSMA EC50” value came out at 0.42 nM. Besides, the “His-ZAP cell killing, human PSMA Average EC50” value in experiment [8] turned out to be 0.017 nM. Further, the “pHrodo Green internalization assay” value in experiment [9] turned out to be 4.8e-10 M.

B4: HiPEG B-2-A-His6 val-cit-PAB-MMAE (bispecific antibody)
chain: EVQLLESGGGLVQPGGSLRLSCAASGFSFSSYAMSWVRQAPGKGLEWVSSIGENDGTTDYADSVKGRFTISRDNSKSMLYLQMNSLRVEDTAVYYCVKDGVHWGQGTLVTVSSGGGGSGGGGSGGGGSGGGGSGGGGSGGGGSEVQLVESGGGVVQPGRSLRLSCAASGFSFSGYGMHWVRQAPGKGLEWVAYISYDGSNKYYADSVKGRFTISRDNSKNTLYLQMNSLRAEDTAVYYCAKDPAWGLRLGESSSYDFDIWGQGTMVTVSS
modifications: HiPEG val-cit-PAB-MMAE attached via the C-terminal His6-tag, DAR 1
Consider B4, for which, in [13], the “IC50 Toxin (nM), DU145 PSMA cells, 48 h” value turned out to be 0.15 nM; the “Mean IC50, cytotoxicity on DU145 PSMA cells, 48 h” value stood at 0.15 nM; the “Mean Max % Cell kill, DU145 PSMA cells, 48 h” value is 79%. In [14], the “IC50 (nM), PSMA-DU145 cytotoxicity assay (72 h)” value stood at 0.27 nM and the “IC50 (toxin) (nM), PSMA-DU145 cytotoxicity assay (72 h)” value was 0.27 nM.

B5: 1.11-6GS-2.1 (bispecific antibody)
chain: B4 chain with M34L, D55N, G56D, S63N, S77N, M78T
notes: linker (G4S)6; also called 1.11-2.1
Turning to B5, the 50% effective concentration (EC50) turned out to be 0.287 nM in experiment [15]; 0.0605 nM in experiment [16]; 0.0736 nM in experiment [17]; 0.0892 nM in [18]; 0.0865 nM in experiment [19]. The “His-ZAP cell killing, cyno PSMA Average EC50” value in experiment [7] is 0.012 nM. Also, the “His-ZAP cell killing, human PSMA Average EC50” value in experiment [8] was 0.017 nM.

B6: 1.16-6GS-2.22 (bispecific antibody)
chain: B4 chain with M34L, D55N, G56H, S63T, S77N, M78T, M177T, D205A, S206P, P243A
notes: linker (G4S)6
In experiment [15], B6 yielded an EC50 of 0.225 nM. Further, in experiment [7], the “His-ZAP cell killing, cyno PSMA Average EC50” value is 0.011 nM. Moreover, the “His-ZAP cell killing, human PSMA Average EC50” value in [8] turned out to be 0.02 nM.

B7: 1.16-6GS-2.1 (bispecific antibody)
chain: B4 chain with M34L, D55N, G56H, S63T, S77N, M78T
notes: linker (G4S)6
In the case of B7, the EC50 turned out to be 0.306 nM in experiment [15]; 0.086 nM in experiment [16]; 0.1 nM in [17]; 0.0902 nM in [18]; 0.107 nM in [19]. Besides, the “His-ZAP cell killing, cyno PSMA Average EC50” value in [7] was determined as 0.013 nM. For the same molecule, in experiment [8], the “His-ZAP cell killing, human PSMA Average EC50” value amounted to 0.014 nM.

B8: 1.18-6GS-2.1 (bispecific antibody)
chain: B4 chain with M34L, D55N, G56A, D62A, S77N, M78T
notes: linker (G4S)6
B8: it took 0.294 nM to reach a half-maximal effect in experiment [15] (EC50). In addition, in experiment [7], the “His-ZAP cell killing, cyno PSMA Average EC50” value worked out at 0.0058 nM. Moreover, the “His-ZAP cell killing, human PSMA Average EC50” value in [8] amounted to 0.0057 nM.

B9: 1.18-6GS-2.17 (bispecific antibody)
chain: B4 chain with M34L, D55N, G56A, D62A, S77N, M78T, G198A, S206N
notes: linker (G4S)6
With B9, the response in experiment [15] was half-maximal at 0.278 nM (EC50). Further, the “His-ZAP cell killing, cyno PSMA Average EC50” value in [7] worked out at 0.0056 nM. Also, the “His-ZAP cell killing, human PSMA Average EC50” value in experiment [8] was found to be 0.012 nM.

B10: 1.16-6GS-2.17 (bispecific antibody)
chain: B4 chain with M34L, D55N, G56H, S63T, S77N, M78T, G198A, S206N
notes: linker (G4S)6
For the molecule B10, the concentration for a half-maximal effect (EC50) in experiment [15] is 0.333 nM; in [16], 0.0944 nM; in experiment [17] it was 0.0628 nM; in experiment [18], 0.0741 nM; in experiment [19], 0.0675 nM. The “His-ZAP cell killing, cyno PSMA Average EC50” value in experiment [7] came to 0.011 nM. Moreover, the “His-ZAP cell killing, human PSMA Average EC50” value in experiment [8] was 0.015 nM.

B11: 1.18-6GS-2.22 (bispecific antibody)
chain: B4 chain with M34L, D55N, G56A, D62A, S77N, M78T, M177T, D205A, S206P, P243A
notes: linker (G4S)6
Consider B11, for which the half-maximal effective concentration (EC50) in experiment [15] was 0.196 nM. Moreover, in experiment [7], the “His-ZAP cell killing, cyno PSMA Average EC50” value stood at 0.014 nM. Besides, the “His-ZAP cell killing, human PSMA Average EC50” value in [8] is 0.015 nM.

B12: 1.11-6GS-2.22 (bispecific antibody)
chain: B4 chain with M34L, D55N, G56D, S63N, S77N, M78T, M177T, D205A, S206P, P243A
notes: linker (G4S)6; also called 1.11-2.22; 1.11-6GS-2.22His
In the case of B12, in experiment [15], it took 0.219 nM to reach a half-maximal effect (EC50). Besides, in experiment [7], the “His-ZAP cell killing, cyno PSMA Average EC50” value was 0.0095 nM. The “His-ZAP cell killing, human PSMA Average EC50” value in experiment [8] is 0.01 nM.

B13: 1.11-6GS-2.17 (bispecific antibody)
chain: B4 chain with M34L, D55N, G56D, S63N, S77N, M78T, G198A, S206N
notes: linker (G4S)6
With B13, the EC50 amounted to 0.281 nM in experiment [15]; 0.0725 nM in experiment [16]; 0.0844 nM in experiment [17]; 0.0639 nM in [18]; 0.101 nM in [19]. The “His-ZAP cell killing, cyno PSMA Average EC50” value in experiment [7] came to 0.0081 nM. In [8], the “His-ZAP cell killing, human PSMA Average EC50” value turned out to be 0.0079 nM.

B14: HiPEG D-His6 val-cit-PAB-MMAE (VHH)
VHH: EVQLLESGGGLVQPGGSLRLSCAASGFRISDEDMGWVRQAPGKGLEWVSSIYGPSGSTYYADSVKGRFTISRDNSKNTLYLQMNSLRAEDTAVYYCASALEPLSEPLGFWGQGTLVTVSS
modifications: HiPEG val-cit-PAB-MMAE attached via the C-terminal His6-tag
On to B14, for which the “Mean IC50, cytotoxicity on DU145 PSMA cells, 48 h” value in experiment [13] is greater than 300 nM. In experiment [14], the “IC50 (nM), PSMA-DU145 cytotoxicity assay (72 h)” value is greater than 100 nM and the “IC50 (toxin) (nM), PSMA-DU145 cytotoxicity assay (72 h)” value was greater than 100 nM.

One may read the EC50 as the midpoint of the concentration-response curve. Low readings indicate higher potency in that assay, high ones lower potency in that assay. As usually defined, the Kd is the equilibrium constant for the complex coming apart. In general, koff refers to the first-order rate constant of dissociation.
